In publication PMC8409985 one finds t1/2 data, which are given here for two substances.

The target in the assay is truncated human ACE2 ectodomain (residues 19–613) with C-terminal AVI-tag and 6xHis-tag, biotinylated (human) (UniProt Q9BYF1). Nature of the assay: BLI. For orientation: In BLI a coated tip is dipped into the sample, and binding shifts an interference pattern.

As for “SARS-CoV-2 RBD variant N439K (from UniProt P0DTC2 319-541) (domain or fragment)”, the t1/2 amounted to 1.85 min. Under “SARS-CoV-2 RBD variant N501Y (from UniProt P0DTC2 319-541) (domain or fragment)” stands 5.49 min.
